Test results reported in patent US20170058005A1 (priority 2014, published 2017).
“Also recorded” adds a separate entry of the source.

Assays:
[1] = target: DRB1*1501 (DR15) (Homo sapiens, UniProt P01903+P01911); assay type: binding
[2] = target: DRB1*0701 (DR7) (Homo sapiens, UniProt P01903+P01911, A100R/A102G/A103Q/D57E/D86V/E43K/F76Y/K127E/L162R/M171V/P40G/Q125H/Q99D/R33Q/R42Y/R54Q/S133A/S66F/T210M/V115G/Y107V/Y59L/Y89S); assay type: binding
[3] = test system: HLA-DR molecules; assay type: binding, human
[4] = target: DRB1*1101 (DR11) (Homo sapiens, UniProt P01903+P01911, A100R/A169T/A87E/I96F/K41T/L162R/M171V/P40S/Q125H/Q178H/Q39Y/Q99D/R42S/S66Y/T262R/V115G/W38E); assay type: binding
[5] = target: DRB1*0301 (DR3) (Homo sapiens, UniProt P01903+P01911, A100K/A102G/A103R/A169T/F55Y/I96L/K41T/L162R/M171V/P40S/Q125H/Q178H/Q39Y/R42S/S66N/T106N/T262R/W38E/Y61H); assay type: binding
[6] = target: DRB1*0401 (DR4) (Homo sapiens, UniProt P01903+P01911, A100K/A169T/F76Y/I96L/K127E/L162R/M171V/N62H/P40V/Q125Y/R42H/S133A/S149N/S66Y/V115G/V209L/W38E); assay type: binding
[7] = target: DRB1*1301 (DR13) (Homo sapiens, UniProt P01903+P01911, A100E/A169T/K41T/L162R/M171V/P40S/Q125H/Q178H/Q39Y/Q99D/R42S/S66N/T262R/W38E/Y61H); assay type: binding
[8] = target: DRB1*0101 (DR1) (Homo sapiens, UniProt P01903+P01911, A100R/D57E/F55L/F60I/F76Y/I96L/L162R/M171V/P40L/Q125E/R42F/V115G/Y59C); assay type: binding
[9] = test system: CD4^+ T cells of HLA class II transgenic mice; assay type: cell-based
[10] = test system: human PBMCs; assay type: cell-based

Row | Sequence | Relative binding affinity of peptide to HLA-DR molecules, DR15 [1] | Relative binding affinity of peptide to HLA-DR molecules, DR7 [2] | Binding across all HLA-DR alleles assayed [3] | Relative binding affinity of peptide to HLA-DR molecules, DR11 [4] | Relative binding affinity of peptide to HLA-DR molecules, DR3 [5] | Relative binding affinity of peptide to HLA-DR molecules, DR4 [6] | Relative binding affinity of peptide to HLA-DR molecules, DR13 [7] | Relative binding affinity of peptide to HLA-DR molecules, DR1 [8] | CD4 T cell response in LF immunized HLA transgenics [9] | HLA-restriction based on CD4 T cell response class II HLA transgenics after priming with LF [9] | Strong relative binding affinity of peptide to HLA-DR molecules, DR15 [1] | Strong relative binding affinity of peptide to HLA-DR molecules, DR7 [2] | Binding to HLA-DR1, DR4 and DR15 [3] | Strong relative binding affinity of peptide to HLA-DR molecules, DR11 [4] | Strong relative binding affinity of peptide to HLA-DR molecules, DR3 [5] | Strong relative binding affinity of peptide to HLA-DR molecules, DR4 [6] | Strong relative binding affinity of peptide to HLA-DR molecules, DR13 [7] | Strong relative binding affinity of peptide to HLA-DR molecules, DR1 [8] | T cell recognition in human cohorts [10] | Peptide-specific recall response [9]
1 | PESRSILLHGPSKGVELRND | 17 | 51 | strong to moderate binding across all seven HLA-DR alleles | 120 | 354 | 22 | 21 | 7 | elicited a T cell response in a single HLA transgenic strain; also recorded: immunodominant epitopes in HLA-DR15 transgenics | DR15 |  |  |  |  |  |  |  |  |  | 
2 | QHRDVLQLYAPEAFNYMDKF | 0.3 | 83 | strong to moderate binding across all seven HLA-DR alleles | 5 | 3 | 100 | 267 | 146 |  | DR1, DQ8 |  |  |  |  |  |  |  |  |  | 
3 | EQYTHQDEIYEQVHSKGLYV | 13 | 0 | strong to moderate binding across all seven HLA-DR alleles | 35 | 245 | 237 | 15 | 1 | immunodominant epitope in both HLA-DR1 and HLA-DR15 transgenics | DRI |  |  |  |  |  |  |  |  |  | 
4 | LENGKLILQRNIGLEIKDVQI | 0.04 | 1 |  | 3 | 4 | 7 | 9 | 0 | identified in HLA-DR1, HLA-DR4 and HLA-DR15 transgenic lines; also recorded: immunogenic in all three HLA-DR transgenic strains | DR1, DR4, DR15 | + (key: +: Strong binding affinity was defined in this study as a relative activity <10) | + (key: +: Strong binding affinity was defined in this study as a relative activity <10) | strong binders to all three HLA-DR alleles | + (key: +: Strong binding affinity was defined in this study as a relative activity <10) | + (key: +: Strong binding affinity was defined in this study as a relative activity <10) | + (key: +: Strong binding affinity was defined in this study as a relative activity <10) | + (key: +: Strong binding affinity was defined in this study as a relative activity <10) | + (key: +: Strong binding affinity was defined in this study as a relative activity <10) |  | 
5 | KIYLYENMNINNLTATLGAD | 0.1 | 5 | strong binding affinity across all HLA-DR alleles assayed | 5 | 1 | 0.2 | 17 | 0.2 | recognised by all LF immunized HLA transgenics; also recorded: capable of eliciting a T cell response from all the HLA transgenics; also recorded: immunogenic in all three HLA-DR transgenic strains | DR1, DR4, DR15,; also recorded: DQ8, DQ6 | + (key: +: Strong binding affinity was defined in this study as a relative activity <10) | + (key: +: Strong binding affinity was defined in this study as a relative activity <10) | strong binders to all three HLA-DR alleles | + (key: +: Strong binding affinity was defined in this study as a relative activity <10) | + (key: +: Strong binding affinity was defined in this study as a relative activity <10) | + (key: +: Strong binding affinity was defined in this study as a relative activity <10) |  | + (key: +: Strong binding affinity was defined in this study as a relative activity <10) | recognized by a high proportion of naturally infected donors, but not vaccinated individuals | strongest peptide recall in both groups
6 | HQSIGSTLYNKIYLYENMNI | 0.02 | 3 | strong to moderate binding across all seven HLA-DR alleles | 44 | 1 | 55 | 5 | 115 | recognised by all LF immunized HLA transgenics; also recorded: immunogenic in all three HLA-DR transgenic strains | DR1, DR4, DR15,; also recorded: DQ8, DQ6 | + (key: +: Strong binding affinity was defined in this study as a relative activity <10) | + (key: +: Strong binding affinity was defined in this study as a relative activity <10) |  |  | + (key: +: Strong binding affinity was defined in this study as a relative activity <10) |  | + (key: +: Strong binding affinity was defined in this study as a relative activity <10) |  |  | 
